Measured values published in US20100216161.
Read-outs that look alike come from different tables or passages of the source.

Key:
[1] = system: NS5AB peptide substrate NH2-EDVV-(alpha)Abu-CSMSY-COOH
[2] = biological target: T1, FITC-NS5AB-1 peptide substrate FITC-Ahx-EDVV-(alpha)Abu-CSMSYTKK-NH2
T1 chain: XEDVVXCSMSYTKK

[3] = biological target: T2, NS5AB-EDANS peptide substrate NH2-EDVV-(alpha)Abu-CSMSYT-Asp(EDANS)-KKK-COOH
T2 chain: EDVVXCSMSYTDKKK

[4] = biological target: T3, NS5AB peptide substrate NH2-EDVV-(alpha)Abu-CSMSY-COOH
T3 chain: EDVVXCSMSY

HCV NS3 protease domain (residues Ala1-Ser181 of HCV NS3 protease, C-terminal hexa-histidine tag)
Km [1]: 25 µM | kcat/Km [1]: 30000 M⁻¹ s⁻¹

B1: NS3•4A protein with an N-terminal histidine tag (protein)
chain: MSHHHHHHAMAPITAYAQQTRGLLGCIITSLTGRDKNQVEGEVQIVSTATQTFLATCINGVCWTVYHGAGTRTIASPKGPVIQMYTNVDQDLVGWPAPQGSRSLTPCTCGSSDLYLVTRHADVIPVRRRGDSRGSLLSPRPISYLKGSSGGPLLCPAGHAVGLFRAAVCTRGVTKAVDFIPVENLETTMRSPVFTDNSSPPAVPQSFQVAHLHAPTGSGKSTKVPAAYAAQGYKVLVLNPSVAATLGFGAYMSKAHGVDPNIRTGVRTITTGSPITYSTYGKFLADGGCSGGAYDIIICDECHSTDATSILGIGTVLDQAETAGARLVVLATATPPGSVTVSHPNIEEVALSTTGEIPFYGKAIPLEVIKGGRHLIFCHSKKKCDELAAKLVALGINAVAYYRGLDVSVIPTNGDVVVVSTDALMTGFTGDFDSVIDCNTCVTQTVDFSLDPTFTIETTTLPQDAVSRTQRRGRTGRGKPGIYRFVAPGERPSGMFDSSVLCECYDAGCAWYELMPAETTVRLRAYMNTPGLPVCQDHLEFWEGVFTGLTHIDAHFLSQTKQSGENFPYLVAYQATVCARAQAPPPSWDQMWKCLIRLKPTLHGPTPLLYRLGAVQNEVTLTHPITKYIMTCMSADLEVVTSTWVLVGGVLAALAAYCLSTGCVVIVGRIVLSGKPAIIPDREVLYQEFDEMEEC
Km [2]: 15 µM | kcat/Km [2]: 1200 M⁻¹ s⁻¹ | Km [3]: 56 µM | kcat/Km [3]: 1400 M⁻¹ s⁻¹ | Km [4]: 30 µM | kcat/Km [4]: 7900 M⁻¹ s⁻¹
